Where a chain is given by its changes, count along the chain named. Like-named read-outs stand apart in the source and are kept apart here.
Experiments:
[1] = molecular target: T1, Recombinant cynomolgus IL-18 (cynomolgus monkey, UniProt Q14116 37-193 (human entry)); assay: solution equilibrium titration (SET), ECL detection; value in brackets = cynomolgus IL-18; bracketed value
T1 construct: also called cm IL-18; Cyno IL-18
T1 chain: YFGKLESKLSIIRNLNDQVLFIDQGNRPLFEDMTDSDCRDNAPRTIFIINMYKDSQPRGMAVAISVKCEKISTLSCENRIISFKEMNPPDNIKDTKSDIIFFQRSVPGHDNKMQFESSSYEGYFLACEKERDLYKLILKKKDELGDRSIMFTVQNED
Protocol: (§1) Goat-anti-human (Fab)₂ fragment specific antibodies (Dianova) were labeled with MSD SULFO-TAG™ NHS-Ester (Meso Scale Discovery, Gaithersburg, Md., USA) according to the manufacturer's instructions. Experiments were carried out in polypropylene microtiter plates and phosphate-based assay buffer. Unlabeled human IL-18 was serially diluted, starting with a concentration at least 10 times higher than the expected KD. Wells without antigen were used to determine Bₘₐₓ values; wells with assay buffer were used to determine background. After addition of a constant amount of antibodies or fragment thereof (e.g. 10 pM final concentration in 60 μl final volume), the mixture was incubated over night at RT.
(§2) Streptavidin MSD plates were blocked with BSA-containing phosphate buffer over night. After blocking of the plate, biotinylated human IL-18 was added and incubated for 1 h at RT. Subsequently the equilibrated samples were transferred to those plates and incubated for a short time at RT. After washing, MSD SULFO-TAG labeled detection antibody (goat anti-human (Fab)₂) was added to the MSD plate and incubated for a short time at RT.
(§3) Where IL-18 from cynomolgus monkey (cm IL-18) was also tested, the resulting KD are indicated in brackets.

[2] = molecular target: T1, Recombinant cynomolgus IL-18; assay: ratio of SET KD values, cynomolgus against human IL-18
Recombinant human IL-18 [3] = molecular target: T2, Recombinant human IL-18 (human, UniProt Q14116 37-193); assay: cell-based or functional assay
T2 sequence: T1 chain with I11V, N50S, A63T, R79K, Y134F, K141E

[4] = molecular target: T1, Recombinant cynomolgus IL-18; assay: cell-based or functional assay
Native human IL-18 [5] = molecular target: T3, Native human IL-18 (human, UniProt Q14116 37-193); assay: cell-based or functional assay
T3 sequence: T1 chain with I11V, N50S, A63T, R79K, Y134F, K141E

Recombinant human IL-18 [6] = molecular target: T2, Recombinant human IL-18; assay: solution equilibrium titration (SET), ECL detection; human IL-18; unbracketed value, column Hu IL-18
Protocol: as §1, §2, §3

Recombinant human IL-18 [7] = molecular target: T2, Recombinant human IL-18; assay: cell-based or functional assay; remark: listed apart in the source
Native human IL-18 [8] = molecular target: T3, Native human IL-18; assay: cell-based or functional assay; remark: listed apart in the source
Recombinant human IL-18 [9] = molecular target: T2, Recombinant human IL-18; assay: cell-based or functional assay; remark: listed apart in the source
Native human IL-18 [10] = molecular target: T3, Native human IL-18; assay: cell-based or functional assay; remark: listed apart in the source

Kd [1]: 0.02 nM
fold weaker than against human IL-18 [2]: 10 fold
IC50, inhibition of IFN-γ release, KG-1 cells, Hu IL-18 (1 nM) (Recombinant human IL-18 [3]): 0.36 nM
IC50, inhibition of IFN-γ release, KG-1 cells, Cyno IL-18 [4]: 4.7 nM
IC50, inhibition of IFN-γ release, PBMC, Native IL-18 (LPS/IL-12) (Native human IL-18 [5]): 0.2 nM
Kd (Recombinant human IL-18 [6]): 0.002 nM
IC50, inhibition of IFN-γ release, KG-1 cells, Hu IL-18 (1 nM) (Recombinant human IL-18 [7]): 0.36 nM
IC50, inhibition of IFN-γ release, PBMC, Native IL-18 (LPS/IL-12) (Native human IL-18 [8]): 0.2 nM
IC50, inhibition of IFN-γ release, human whole blood, recombinant human IL-18 (7 nM) (Recombinant human IL-18 [9]): 8.62 nM
IC50, inhibition of IFN-γ release, human whole blood, LPS/IL-12 (native IL-18) (Native human IL-18 [10]): 17.1 nM
B1: MOR9464_N30K (antibody, human IgG1, lambda, L234A L235A, V domains shown)
VH: EVQLVQSGAEVKKPGSSVKVSCKASGGTFKSYAISWVRQAPGQGLEWMGNIIPMTGQTYYAQKFQGRVTITADESTSTAYMELSSLRSEDTAVYYCARAAYHPLVFDNWGQGTLVTVSS
VL: DIVLTQPPSVSGAPGQRVTISCSGSSSNIGNHYVNWYQQLPGTAPKLLIYRNNHRPSGVPDRFSGSKSGTSASLAITGLQSEDEADYYCQSWDYSGFSTVFGGGTKLTVLG
notes: also called MOR09464_N30K

— patent US20140112915A1 (Novartis, published 2014)
